Experiments:
[1] = target: T1, CD3 on Jurkat cells (CD3+/CD20- cells) (human, UniProt P07766 23-207; P04234 22-171; P09693 23-182); test: flow cytometry on Jurkat 2B8 cells (CD3+/CD20-)
T1 construct: whole, on cells; also called Jurkat 2B8
Procedure: (§1) After incubation, the cells were washed twice with cold 1% BSA/1×PBS. […] After being washed twice, the geometric mean fluorescence (MFI) of the stained cells was measured using a FACS Canto II […] (BD Biosciences). Wells containing no antibody or containing only fluorescent secondary antibody were used to establish background fluorescence. The EC50 values for cell binding were determined using GraphPad Prism 5 software (GraphPad Software, La Jolla, Calif.); each value was calculated by four-parameter non-linear regression analysis.

[2] = target: T2, CD20 on Raji cells (CD20+/CD3- cells) (human, UniProt P11836 1-297); test: flow cytometry on Raji cells (CD20+/CD3-)
T2 construct: whole, on cells; Raji, Ramos and NAMALWA in the killing assays; also called Ramos; NAMALWA
T2 sequence (looked up): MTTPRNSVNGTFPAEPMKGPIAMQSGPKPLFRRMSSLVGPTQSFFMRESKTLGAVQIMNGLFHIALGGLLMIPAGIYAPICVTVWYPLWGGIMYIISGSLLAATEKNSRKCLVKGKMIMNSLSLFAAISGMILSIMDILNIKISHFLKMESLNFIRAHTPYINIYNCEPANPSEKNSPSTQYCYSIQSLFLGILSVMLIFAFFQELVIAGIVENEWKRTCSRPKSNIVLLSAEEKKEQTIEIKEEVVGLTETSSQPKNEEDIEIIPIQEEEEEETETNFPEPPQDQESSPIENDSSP
Procedure: as §1

T1 sequence (P07766 23-207, chain 1 of 3): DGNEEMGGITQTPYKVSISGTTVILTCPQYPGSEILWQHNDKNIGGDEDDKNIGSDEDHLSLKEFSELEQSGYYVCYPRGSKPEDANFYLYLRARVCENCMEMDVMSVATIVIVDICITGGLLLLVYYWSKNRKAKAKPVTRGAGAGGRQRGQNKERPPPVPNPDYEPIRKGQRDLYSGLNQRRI
T1 sequence (P04234 22-171, chain 2 of 3): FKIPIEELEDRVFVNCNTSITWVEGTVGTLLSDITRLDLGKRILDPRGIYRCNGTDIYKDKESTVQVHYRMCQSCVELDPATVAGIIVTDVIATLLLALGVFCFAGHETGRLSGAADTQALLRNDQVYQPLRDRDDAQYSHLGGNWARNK
T1 sequence (P09693 23-182, chain 3 of 3): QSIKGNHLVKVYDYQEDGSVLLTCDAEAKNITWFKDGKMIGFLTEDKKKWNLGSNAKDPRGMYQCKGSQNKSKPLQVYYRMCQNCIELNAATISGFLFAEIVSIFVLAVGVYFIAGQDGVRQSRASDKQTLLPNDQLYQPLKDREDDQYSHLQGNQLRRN

B1: W3278-T3U2.F16-1.uIgG4.SP (bispecific antibody)
heavy 1: QVQLVQSGAEVKKPGSSVKVSCKASGFAFTDYYIHWVRQAPGQGLEWMGWISPGNVNTKYNENFKGRVTITADKSTSTAYMELSSLRSEDTAVYYCARDGYSLYYFDYWGQGTLVTVLEDLKNVFPPEVAVFEPSEAEISHTQKATLVCLATGFYPDHVELSWWVNGKEVHSGVCTDPQPLKEQPALQDSRYALSSRLRVSATFWQNPRNHFRCQVQFYGLSENDEWTQDRAKPVTQIVSAEAWGRYGPPCPPCPAPEFLGGPSVFLFPPKPKDTLMISRTPEVTCVVVDVSQEDPEVQFNWYVDGVEVHNAKTKPREEQFNSTYRVVSVLTVLHQDWLNGKEYKCKVSNKGLPSSIEKTISKAKGQPREPQVYTLPPCQEEMTKNQVSLWCLVKGFYPSDIAVEWESNGQPENNYKTTPPVLDSDGSFFLYSRLTVDKSRWQEGNVFSCSVMHEALHNHYTQKSLSLSLG
heavy 2: QVQLQQPGAELVKPGASVKMSCKASGYTFTSYNMHWVKQTPGRGLEWIGAIYPGNGDTSYNQKFKGKATLTADKSSSTAYMQLSSLTSEDSAVYYCARSTYYGGDWYFNVWGAGTTVTVSAASTKGPSVFPLAPCSRSTSESTAALGCLVKDYFPEPVTVSWNSGALTSGVHTFPAVLQSSGLYSLSSVVTVPSSSLGTKTYTCNVDHKPSNTKVDKRVGGGGSGGGGSQVQLQQPGAELVKPGASVKMSCKASGYTFTSYNMHWVKQTPGRGLEWIGAIYPGNGDTSYNQKFKGKATLTADKSSSTAYMQLSSLTSEDSAVYYCARSTYYGGDWYFNVWGAGTTVTVSAASTKGPSVFPLAPCSRSTSESTAALGCLVKDYFPEPVTVSWNSGALTSGVHTFPAVLQSSGLYSLSSVVTVPSSSLGTKTYTCNVDHKPSNTKVDKRVESKYGPPCPPCPAPEFLGGPSVFLFPPKPKDTLMISRTPEVTCVVVDVSQEDPEVQFNWYVDGVEVHNAKTKPREEQFNSTYRVVSVLTVLHQDWLNGKEYKCKVSNKGLPSSIEKTISKAKGQPREPQVCTLPPSQEEMTKNQVSLSCAVKGFYPSDIAVEWESNGQPENNYKTTPPVLDSDGSFFLVSRLTVDKSRWQEGNVFSCSVMHEALHNHYTQKSLSLSLG
light 1: DIVMTQSPDSLAVSLGERATINCKSSQSLLNSRTRKNYLAWYQQKPGQPPKLLIYWASTRQSGVPDRFSGSGSGTDFTLTISSLQAEDVAVYYCTQSHTLRTFGGGTKVEIKPDIQNPDPAVYQLRDSKSSDKSVCLFTDFDSQTQVSQSKDSDVYITDKCVLDMRSMDFKSNSAVAWSQKSDFACANAFQNSIIPEDTFFPSPESS
light 2: QIVLSQSPAILSASPGEKVTMTCRASSSVSYIHWFQQKPGSSPKPWIYATSNLASGVPVRFSGSGSGTSYSLTISRVEAEDAATYYCQQWTSNPPTFGGGTKLEIKRTVAAPSVFIFPPSDEQLKSGTASVVCLLNNFYPREAKVQWKVDNALQSGNSQESVTEQDSKDSTYSLSSTLTLSKADYEKHKVYACEVTHQGLSSPVTKSFNRGEC
notes: Human IgG4 S228P, knobs-into-holes; also called W3278 BsAb; WBP3278 BsAb
With B1 the EC50 [1] was 58.9 nM, the “TOP MFI” value [1] was 6750 MFI and the EC50 [2] was greater than 1000 nM. The “TOP MFI” value [2] was 55200 MFI.
